Experimental data as given in the Immune Epitope Database (IEDB).

Tests used:
HLA-B*35:01 = assay: IEDB peptide-MHC binding, purified MHC/competitive/radioactivity; filed as Kd, often an IC50 or EC50 that approximates it; ≥ and ≤ were set here for values at or beyond the usual limits of such assays
HLA-B*51:01 = assay: as above
HLA-B*53:01 = assay: as above
HLA-B*07:02 = assay: as above
HLA-A*30:01 = assay: as above
HLA-A*32:01 = assay: as above
HLA-A*68:02 = assay: as above
HLA-A*30:02 = assay: as above
HLA-A*26:01 = assay: as above
HLA-A*29:02 = assay: as above
HLA-A*01:01 [1] = assay: as above
HLA-A*02:01 = assay: IEDB peptide-MHC binding, purified MHC/competitive/fluorescence; filed as Kd, often an IC50 or EC50 that approximates it; ≥ and ≤ were set here for values at or beyond the usual limits of such assays
HLA-A*03:01 = assay: IEDB peptide-MHC binding, purified MHC/competitive/radioactivity; filed as Kd, often an IC50 or EC50 that approximates it; ≥ and ≤ were set here for values at or beyond the usual limits of such assays; conditions: source organism: Mammarenavirus whitewaterense
HLA-A*33:01 = assay: as above; conditions: source organism: Mammarenavirus whitewaterense
HLA-A*31:01 = assay: as above; conditions: source organism: Mammarenavirus whitewaterense
HLA-A*68:01 = assay: as above; conditions: source organism: Mammarenavirus whitewaterense
HLA-A*11:01 = assay: IEDB peptide-MHC binding, purified MHC/direct/fluorescence; filed as Kd, often an IC50 or EC50 that approximates it; ≥ and ≤ were set here for values at or beyond the usual limits of such assays; conditions: source organism: SARS-CoV1
HLA-B*15:01 = assay: as above; conditions: source organism: SARS-CoV1
HLA-B*58:01 = assay: as above; conditions: source organism: SARS-CoV1
HLA-A*01:01 [2] = assay: as above; conditions: source organism: SARS-CoV1
HLA-A*23:01 = assay: IEDB peptide-MHC binding, purified MHC/competitive/radioactivity; filed as Kd, often an IC50 or EC50 that approximates it; ≥ and ≤ were set here for values at or beyond the usual limits of such assays
HLA-A*24:02 = assay: as above
HLA-B*08:01 = assay: as above; conditions: source organism: Vaccinia virus WR
[3] = source organism: Dengue virus 2 Jamaica/1409/1983
[4] = source organism: Dengue virus 4 Philippines/H241/1956
[5] = source organism: Dengue virus 1 Brazil/97-11/1997
[6] = source organism: Vaccinia virus WR
[7] = source organism: Lymphocytic choriomeningitis virus (strain Armstrong)
[8] = source organism: SARS coronavirus Tor2
[9] = source organism: Dengue virus 2 Peru/IQT2913/1996
[10] = source organism: Mammarenavirus juninense

Sequence: MAVGMVSIL
- Kd (HLA-B*35:01; [3]): 10.3 nM

Sequence: MPVMKRYSAP
- Kd (HLA-B*35:01; [4]): 502 nM
- Kd (HLA-B*51:01; [4]): ≥ 69600 nM
- Kd (HLA-B*53:01; [4]): 16000 nM
- Kd (HLA-B*07:02; [4]): 9340 nM

Sequence: MPVTVASAA
- Kd (HLA-B*35:01; [5]): 8.14 nM
- Kd (HLA-B*07:02; [5]): 120 nM

Sequence: MQRIISLSV
- Kd (HLA-A*30:01; [6]): 8.81 nM

Sequence: MTMILFLKL
- Kd (HLA-A*32:01; [6]): 248 nM

Sequence: MTNGKINSL
- Kd (HLA-A*32:01; [6]): 22.3 nM

Sequence: MVNGVVKLL
- Kd (HLA-A*68:02; source organism: Dengue virus 1 Singapore/S275/1990): 60.2 nM

Sequence: NANAYSGKY
- Kd (HLA-A*32:01; [7]): ≥ 50000 nM
- Kd (HLA-A*30:02; [7]): 2.71 nM
- Kd (HLA-A*26:01; [7]): 4310 nM
- Kd (HLA-A*29:02; [7]): 1070 nM
- Kd (HLA-A*30:01; [7]): ≥ 37600 nM
- Kd (HLA-A*01:01 [1]; [7]): 515 nM

Sequence: QPHQLWTTL
- Kd (HLA-B*07:02; [5]): 3.43 nM

Sequence: RFASALTAL
- Kd (HLA-B*07:02; [3]): 324 nM

Sequence: RGRLLAAGK
- Kd (HLA-A*30:01; [6]): 125 nM

Sequence: RHRKPTYEK
- Kd (HLA-A*30:01; [4]): 24.5 nM

Sequence: RQMATTTNPLI
- Kd (HLA-A*02:01; source organism: Influenza A virus (A/parakeet/Chiba/1/97(H9N2))): 13 nM

Sequence: RTKPISMYF
- Kd (HLA-A*30:01; source organism: Vaccinia virus Copenhagen): 0.598 nM

Sequence: RTKSKILFG
- Kd (HLA-A*30:01; [6]): 10 nM

Sequence: RVPNYNLII
- Kd (HLA-A*32:01; [3]): 148 nM

Sequence: SGIFVTNEV
- Kd (HLA-A*68:02; [5]): 46.9 nM

Sequence: SLTCEVDAL
- Kd (HLA-A*68:02; source organism: Homo sapiens): 3120 nM

Sequence: SSIIRSLPK
- Kd (HLA-A*03:01): 39 nM
- Kd (HLA-A*33:01): ≥ 39400 nM
- Kd (HLA-A*31:01): 1720 nM
- Kd (HLA-A*30:01; source organism: Mammarenavirus whitewaterense): 180 nM
- Kd (HLA-A*68:01): 223 nM

Sequence: SSLPSYAAY
- Kd (HLA-A*11:01): 390 nM
- Kd (HLA-B*15:01): 52.6 nM
- Kd (HLA-B*58:01): 286 nM
- Kd (HLA-A*01:01 [2]): 1620 nM
- Kd (HLA-A*30:02; [8]): 0.27 nM
- Kd (HLA-A*26:01; [8]): 5040 nM
- Kd (HLA-A*23:01; [8]): ≥ 77800 nM
- Kd (HLA-A*29:02; [8]): 1.49 nM
- Kd (HLA-A*24:02; [8]): ≥ 77600 nM

Sequence: STRDGEPLM
- Kd (HLA-A*26:01; [4]): 8190 nM
- Kd (HLA-A*30:01; [4]): 71.6 nM

Sequence: STRVPNYNL
- Kd (HLA-A*30:01; [4]): 6.26 nM

Sequence: SVSLVLVGV
- Kd (HLA-A*68:02; [3]): 1.05 nM

Sequence: SYRTRAINK
- Kd (HLA-A*30:01; [6]): 1020 nM

Sequence: TLKQRLTNL
- Kd (HLA-A*02:01; [6]): 1390 nM
- Kd (HLA-B*08:01): 1.74 nM

Sequence: TMEAMRIMGI
- Kd (HLA-A*68:02; source organism: Homo sapiens): 21.9 nM

Sequence: TPMMRHTIEN
- Kd (HLA-B*07:02; [5]): 1940 nM

Sequence: TPVESWEEI
- Kd (HLA-B*51:01; [9]): 10500 nM
- Kd (HLA-B*53:01; [9]): 157 nM

Sequence: VQVLALEPGK
- Kd (HLA-A*30:01; [3]): 2520 nM

Sequence: VYRGTTTYKL
- Kd (HLA-A*30:02; [8]): 6880 nM
- Kd (HLA-A*26:01; [8]): 1000 nM
- Kd (HLA-A*23:01; [8]): 101 nM
- Kd (HLA-A*29:02; [8]): 216 nM
- Kd (HLA-A*24:02; [8]): 136 nM
- Kd (HLA-A*01:01 [1]; [8]): 3910 nM

Sequence: WAYHGSYEA
- Kd (HLA-B*35:01; [4]): 167 nM

Sequence: WPLHRMDLGV
- Kd (HLA-B*51:01; [4]): 3280 nM

Sequence: YCNYTKFWY
- Kd (HLA-A*30:02; [10]): 674 nM
- Kd (HLA-A*26:01; [10]): ≥ 77900 nM
- Kd (HLA-A*23:01; [10]): ≥ 22200 nM
- Kd (HLA-A*29:02; [10]): 2000 nM
- Kd (HLA-A*24:02; [10]): ≥ 77500 nM
- Kd (HLA-A*01:01 [1]; [10]): 18500 nM

Sequence: YFMKFRRVF
- Kd (HLA-A*30:02; [8]): ≥ 22100 nM
- Kd (HLA-A*26:01; [8]): ≥ 49300 nM
- Kd (HLA-A*23:01; [8]): ≥ 26900 nM
- Kd (HLA-A*29:02; [8]): 12700 nM
- Kd (HLA-A*24:02; [8]): ≥ 77600 nM
- Kd (HLA-A*01:01 [1]; [8]): ≥ 78100 nM

Sequence: YMMNIYLNF
- Kd (HLA-A*32:01; [6]): 2.93 nM

Sequence: YPLAIPVTM
- Kd (HLA-B*35:01; [4]): 1.93 nM
- Kd (HLA-B*51:01; [4]): 38.7 nM
- Kd (HLA-B*53:01; [4]): 3.47 nM
- Kd (HLA-B*07:02; [4]): 44.6 nM
